Columns and labels:
[1] = biological target: T1, huFc-NKG2A/CD94 (UniProt P26715 94-233; Q13241 32-179, limits assumed); assay: phage supernatant ELISA on huFc-NKG2A/CD94 against huFc-NKG2C/CD94 and huFc-NKG2E/CD94; criterion of selection met by MA-1
T1 construct: Construct known only by its name; the order of the pieces follows the name huFc-NKG2A; not shown: human Fc (huFc)

[2] = biological target: T2, huFc-NKG2C/CD94 (UniProt P26717 94-231; Q13241 32-179, limits assumed); assay: ELISA, dilution series of MA-1 on huFc-NKG2C/CD94, anti-mouse Ig-HRP
T2 construct: Construct known only by its name; not shown: human Fc (huFc)
T2 sequence (P26717 94-231 limits assumed, chain 1 of 2): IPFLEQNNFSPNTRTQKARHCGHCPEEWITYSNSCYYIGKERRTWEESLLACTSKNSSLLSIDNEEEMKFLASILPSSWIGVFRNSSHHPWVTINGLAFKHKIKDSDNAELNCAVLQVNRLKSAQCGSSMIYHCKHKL
T2 sequence (Q13241 32-179 limits assumed, chain 2 of 2): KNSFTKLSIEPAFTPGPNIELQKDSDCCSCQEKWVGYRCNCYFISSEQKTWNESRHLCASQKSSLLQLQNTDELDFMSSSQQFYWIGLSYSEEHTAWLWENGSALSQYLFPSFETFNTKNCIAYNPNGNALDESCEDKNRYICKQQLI

[3] = biological target: T3, huFc-NKG2E/CD94 (UniProt Q07444 94-240; Q13241 32-179, limits assumed); assay: ELISA, dilution series of MA-1 on huFc-NKG2E/CD94, anti-mouse Ig-HRP
T3 construct: Construct known only by its name; not shown: human Fc (huFc)
T3 sequence (Q07444 94-240 limits assumed, chain 1 of 2): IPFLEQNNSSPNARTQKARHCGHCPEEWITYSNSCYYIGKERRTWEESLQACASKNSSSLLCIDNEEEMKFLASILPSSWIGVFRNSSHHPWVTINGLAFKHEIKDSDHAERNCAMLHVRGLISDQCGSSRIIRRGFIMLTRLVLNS
T3 sequence (Q13241 32-179 limits assumed, chain 2 of 2): as the sequence (Q13241 32-179 limits assumed, chain 2 of 2) above

T1 sequence (P26715 94-233 limits assumed, chain 1 of 2): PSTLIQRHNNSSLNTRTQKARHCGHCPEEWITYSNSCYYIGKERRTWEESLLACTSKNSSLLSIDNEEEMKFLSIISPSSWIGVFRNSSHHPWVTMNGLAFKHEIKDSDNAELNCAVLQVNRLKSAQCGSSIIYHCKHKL
T1 sequence (Q13241 32-179 limits assumed, chain 2 of 2): as the sequence (Q13241 32-179 limits assumed, chain 2 of 2) above

Binder | OD450nm ratio, NKG2A against NKG2C/E [1] [fold] | binding result [2] | binding result [3]
MA-1 噬菌体单克隆抗体 (phage-displayed single-chain antibody MA-1) (scFv) EVKLEESGGGLVKPGGSLKLSCAASGFAFSDYDMSWVRQTPEKRLEWVATISSGGSYTYYPDSVKGRFTISRDNARNTLYLQMSSLRSEDTALYYCTSPRQVGLRKAFDYWGQGTTLTVSSDIVVTQSPALMSASPGEKVTMTCSASSSVSYMYWYQQKPRSSPKSWIYLTSNLASGVPARFSGSGSGTSYSLTISSMEAEDAATYYCQQWSSNPFTFGSGTKLEIKRAD | ≥ 3 | – | –
MA-1 鼠源全抗分子 (mouse IgG2a / mouse Ck full antibody) (antibody, V domains shown, plain joining would double 'AD' at the junction; also called MA-1鼠源抗体; 抗NKG2A单克隆抗体MA-1) VH: EVKLEESGGGLVKPGGSLKLSCAASGFAFSDYDMSWVRQTPEKRLEWVATISSGGSYTYYPDSVKGRFTISRDNARNTLYLQMSSLRSEDTALYYCTSPRQVGLRKAFDYWGQGTTLTVSS VL: DIVVTQSPALMSASPGEKVTMTCSASSSVSYMYWYQQKPRSSPKSWIYLTSNLASGVPARFSGSGSGTSYSLTISSMEAEDAATYYCQQWSSNPFTFGSGTKLEIKR | – | no binding | no binding

Source: patent publication CN115819587A (BEIJING DONGFANG BIOTECH CO LTD; BEIJING JINGYI TAIXIANG …, dated 2023)
